Reference: US20200262917A1 (Daiichi Sankyo, published 2020)
Positions count from the first letter of the chain named. Values belong to the binder of their own block, whether it stands above or below them.

What was measured:
[1] = biological target: T1, FLAG-D4: domain 4 and onwards (353-525) of human LAG-3 with N-terminal FLAG tag, on cells (human, UniProt P18627 353-525); assay: flow cytometry on transfected HEK293T cells
T1 construct: Expressed on HEK293T cells from pcDNA3.1; any leader before the FLAG tag is not described; also called construct containing only domain 4
T1 sequence: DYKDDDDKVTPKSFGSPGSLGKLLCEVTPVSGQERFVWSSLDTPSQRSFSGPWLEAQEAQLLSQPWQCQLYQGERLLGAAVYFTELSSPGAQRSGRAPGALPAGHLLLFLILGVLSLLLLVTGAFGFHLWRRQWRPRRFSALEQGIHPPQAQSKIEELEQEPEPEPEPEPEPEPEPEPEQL
Procedure: (§1) It was further confirmed by flow cytometry that the antibody produced by the hybridomas determined to be positive by the Cell-ELISA in Example 1)-3 binds to PHA (phytohemagglutinin) activated human T cells (PHA blasts), a more physiologically relevant cell type expressing LAG-3. To human PBMCs stimulated with 2 μg/mL of PHA (manufactured by Sigma-Aldrich) for three days, was added a hybridoma culture supernatant for suspension, followed by reaction at 4° C. for 30 minutes. After washing with a FACS buffer (PBS, 0.1% BSA, and 0.1% sodium azide), a secondary antibody such as an Anti-Rat IgG PE conjugate (manufactured by Jackson ImmunoResearch Laboratories, Inc.) diluted 200-fold with a FACS buffer comprising a LIVE/DEAD Fixable Dead Cell Stain Kit-near-IR fluorescent reactive dye (manufactured by Invitrogen Corp.) was added thereto for suspension, followed by standing at 4° C. for 30 minutes. After washing with a FACS buffer, the cells were resuspended in PBS containing 1 to 2% paraformaldehyde, followed by detection using a flow cytometer (Cantoll: manufactured by Becton, Dickinson and Company or FC500: manufactured by Beckman Coulter Inc.). The data was analyzed using FlowJo (manufactured by Tree Star Inc). After removal of the LIVE/DEAD Fixable Dead Cell Stain Kit-near-IR fluorescent reactive dye-positive dead cells by gating, a histogram of the fluorescence intensity of the living cells was plotted.
(§2) Each expression plasmid (cloned into pcDNA3.1) of either domain 3 and onwards (263-525) or domain 4 and onwards (353-525) of human LAG-3 with a FLAG tag sequence ([…]) added to the N terminus was introduced into HEK293T cells using Lipofectamine 2000 (manufactured by Life Technologies Corp.), and the cells were cultured for 1 day and then recovered, to investigate the binding activity of the antibodies by flow cytometry according to the method described in Example 1)-4. […]

[2] = biological target: T2, FLAG-D3D4: domain 3 and onwards (263-525) of human LAG-3 with N-terminal FLAG tag, on cells (human, UniProt P18627 263-525); assay: flow cytometry on transfected HEK293T cells, antibody at 10 µg/mL
T2 construct: Expressed on HEK293T cells from pcDNA3.1; any leader before the FLAG tag is not described; also called construct containing domains 3 and 4
T2 sequence: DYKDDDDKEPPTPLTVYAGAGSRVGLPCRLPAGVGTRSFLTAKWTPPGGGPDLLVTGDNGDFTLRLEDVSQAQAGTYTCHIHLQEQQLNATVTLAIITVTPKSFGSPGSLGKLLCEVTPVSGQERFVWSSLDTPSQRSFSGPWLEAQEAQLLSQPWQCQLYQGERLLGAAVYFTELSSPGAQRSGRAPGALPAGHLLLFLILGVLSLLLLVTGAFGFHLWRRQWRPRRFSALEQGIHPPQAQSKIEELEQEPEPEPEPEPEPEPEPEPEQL
Procedure: as §1, §2

[3] = biological target: T3, human LAG-3 (full length, expressed on cells) (human, UniProt P18627 23-525); assay: flow cytometry on PHA-activated human T cells (PHA blasts) expressing LAG-3
T3 construct: also called CD223; hLAG-3
T3 sequence: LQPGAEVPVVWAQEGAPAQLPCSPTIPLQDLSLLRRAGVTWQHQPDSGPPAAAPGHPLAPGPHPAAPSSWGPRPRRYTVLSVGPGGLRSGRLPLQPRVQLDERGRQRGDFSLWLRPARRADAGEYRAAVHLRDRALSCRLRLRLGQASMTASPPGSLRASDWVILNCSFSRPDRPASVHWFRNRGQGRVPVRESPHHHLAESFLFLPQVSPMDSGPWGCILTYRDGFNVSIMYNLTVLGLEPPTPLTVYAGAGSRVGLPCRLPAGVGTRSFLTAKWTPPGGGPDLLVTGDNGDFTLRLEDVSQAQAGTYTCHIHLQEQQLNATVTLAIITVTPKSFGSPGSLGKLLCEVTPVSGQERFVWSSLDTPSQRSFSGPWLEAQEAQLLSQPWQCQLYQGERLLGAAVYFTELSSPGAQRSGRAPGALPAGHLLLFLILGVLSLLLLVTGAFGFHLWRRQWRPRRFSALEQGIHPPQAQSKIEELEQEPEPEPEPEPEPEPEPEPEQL

[4] = biological target: T2, FLAG-D3D4: domain 3 and onwards …; assay: same type of flow cytometry experiment using hybridoma culture supernatant
[5] = biological target: T3, human LAG-3 (full length, expressed on …); assay: flow cytometry on human LAG-3-expressing 293T-lacZ cells
Procedure: The flow cytometry was performed according to the method described in Example 1)-4, but an Anti-Human IgG PE conjugate (manufactured by Jackson ImmunoResearch Laboratories, Inc.) diluted 200-fold with a FACS buffer was used as the secondary antibody.

B2: rat anti-human LAG-3 monoclonal antibody rLA869 (antibody, V domains shown)
VH: EVQLVESGGGLVQPGRSLKLSCAASGFTYRTYVMAWVRQGPTQGLEWVASISTGGVSTYYRDSVKGRFTISRDNAKNTLYLQMDSLRSEDTATYYCAKDMLNGYNSQGLFDYWGQGVMVTVSS
VL: NIVMTQSPKSMSISVGDRVTMNCRASQNVDNTIAWYQQKPGQSPKLLIYFASDRYTGVPDRFTGGGYGTDFTLTINSVQAEDAAFYYCQRIYNSPLTFGSGTKLEIRR
notes: Rat monoclonal antibody
binding result [4]: binds
binding result [3]: binds

B3: rat anti-human LAG-3 monoclonal antibody rLA1264 (antibody, V domains shown)
VH: EVQLVESGGGLVQPGRSLKLSCAASGFTFSSYYMAWVRQAPTKGLEWVAYISNGGYSTYYRDSVKGRFTISRENAKSTLYLQMDSLRSEDTATYYCTITDHSGYRFTYWGQGTLVTVSS
VL: DIQMTQSPSLLSASVGDRVTLSCKASQSIYNSLAWYQQKLGEAPKLLIYDANSLQTGIPSRFSGSGSGTDFTLTISSLQPEDVATYFCQKYYSGNTFGAGTKLELKR
notes: Rat monoclonal antibody
binding result [4]: binds
binding result [3]: binds

B5: humanized anti-human LAG-3 antibody hLA212_H4/L2 (antibody, human IgG1, kappa, V domains shown)
VH: EVQLVESGGGLVQPGGSLRLSCAASGFTYRSYVMAWVRQAPGKGLEWVASISTGGGNTYYRDSVKGRFTISRDNAKNTLYLQMDSLRAEDTAVYYCAEDMSNSGYGLFDYWGQGTLVTVSS
VL: DIQMTQSPSSLSASVGDRVTITCKAGQNVDNNIAWYQQKPGQSPKLLIYYASNRNTGVPSRFSGSGYGTDFTLTISSLQPEDFATYYCQRISNSPYTFGQGTKVEIKR
modifications: defucosylated (sugar chain modification adjusted); peaks of fucose-containing H chain at or below the detection limit in mass spectrometry
notes: defucosylated form (human IgG1/kappa); also called hLA212 antibody H4/L2; low fucose form of hLA212_H3/L2
binding result [5]: binds

Other lines, results leading:

binding result [1]: no binding (tested: 10 µg/mL)
binding result [2]: binds
binding result [3]: binds
B1: rat anti-human LAG-3 monoclonal antibody rLA225 (antibody, V domains shown)
VH: EVQLVESGGGLVQPGRSMKLSCVASGFTFSNYYMAWVRQAPTKGLEWVASISTGGGNTYYRDSVKGRFTISRDNAKSTLYLQMDSLRSEDTATYYCARPPYGYNYGWFTYWGQGTLVTVSS
VL: DIQMTQSPASLSASLGETVTIECRASEDIHNGLVWYQQKPGKSPQLLIYNANSMHTGVPSRFSGSGSGTQYSLKINSLQSEDVASYFCQQYYNYPRTFGGGTKLELKR
notes: Rat monoclonal antibody purified from hybridoma supernatant; the rat constant regions are not

binding result [1]: no binding (tested: 10 µg/mL)
binding result [2]: binds
binding result [3]: binds
B4: rat anti-human LAG-3 monoclonal antibody rLA212 (antibody, V domains shown)
VH: B5 VH with G16R, R19K, G42T, K43R, A88S, V93T, T115V, L116M
VL: NIVMTQSPKSMSISVGDRVTMNCKAGQNVDNNIAWYQKKPGQSPKLLIYYASNRNTGVPDRFTGGGYGTDFTLTINSVQAEDAAFYYCQRISNSPYTFGAGTELELKR
notes: as for B1
